Experimental data reported in patent US20170122932A1 (MEDICAL AND BIOLOGICAL LABORATORIES, published 2017).

Key:
[1] = target: the molecule itself; assay: fluorescent foci in HEK293 cells co-expressing PB1-mAG1-FKBP12, 500 nM rapamycin; homodimer formation of CD80
Experimental: (§1) (A) CD80-FRB and PB1-mAG1-FKBP12; and [0651] (B) CD2-FRB and PB1-mAG1-FKBP12.
(§2) Specifically, first, HEK293 cells were cultured in a culture solution (DMEM high glucose, 10% FBS, 1% penicillin-streptomycin). Then, on the day before the transfection, the cells were seeded onto an 8-well chamber, and cultured in 100 μL of the culture solution per well. Subsequently, a DNA solution prepared by mixing 200 ng of each of the plasmids was diluted with 10 μL of OptiMEM. Thereafter, 0.8 μL of Fugene HD was added thereto and then stirred. The resultant was further mixed with 90 μl of the culture solution. After that, the obtained mixture solution was added to the cultured cells and cultured for 20 hours.

mAG1-Cyclin D1 = target: T1, mAG1-Cyclin D1 (UniProt P24385 1-295); assay: fluorescent foci in HEK293 cells expressing mAG1-Cyclin D1, p21-PB1 and CDK4-PB1
T1 construct: whole, on cells; also called hmAG1-Cyclin D1

[2] = target: the molecule itself; assay: fluorescent foci in HEK293 cells co-expressing PB1-mAG1-FKBP12, 500 nM rapamycin; negative control for homodimer formation
Experimental: as §1, §2

T1 sequence (P24385 other isoform, or with tags, fused parts or gaps): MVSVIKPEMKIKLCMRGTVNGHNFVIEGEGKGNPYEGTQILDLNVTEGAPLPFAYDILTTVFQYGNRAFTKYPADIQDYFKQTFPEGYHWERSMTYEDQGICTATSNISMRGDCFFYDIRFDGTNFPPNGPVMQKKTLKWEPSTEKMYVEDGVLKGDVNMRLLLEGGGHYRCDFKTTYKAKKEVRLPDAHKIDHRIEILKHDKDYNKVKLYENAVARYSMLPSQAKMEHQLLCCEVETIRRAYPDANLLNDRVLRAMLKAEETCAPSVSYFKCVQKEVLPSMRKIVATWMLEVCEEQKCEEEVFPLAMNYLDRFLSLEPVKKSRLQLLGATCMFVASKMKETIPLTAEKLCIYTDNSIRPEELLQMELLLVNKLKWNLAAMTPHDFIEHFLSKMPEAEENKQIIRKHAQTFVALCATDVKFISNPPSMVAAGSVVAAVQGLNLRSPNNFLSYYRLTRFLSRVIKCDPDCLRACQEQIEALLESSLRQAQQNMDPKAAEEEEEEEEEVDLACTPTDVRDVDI

B1: CD80-FRB (other, not shown: small tags and cut ends)
chain: VIHVTKEVKEVATLSCGHNVSVEELAQTRIYWQKEKKMVLTMMSGDMNIWPEYKNRTIFDITNNLSIVILALRPSDEGTYECVVLKYEKDAFKREHLAEVTLSVKADFPTPSISDFEIPTSNIRRIICSTSGGFPEPHLSWLENGEELNAINTTVSQDPETELYAVSSKLDFNMTTNHSFMCLIKYGHLRVNQTFNWNTTKQEHFPDNLLPSWAITLISVNGIFVICCLTYCFAPRCRERRRNERLRRESVRPVEMWHEGLEEASRLYFGERNVKGMFEVLEPLHAMMERGPQTLKETSFNQAYGRDLMEAQEWCRKYMKSGNVKDLTQAWDLYYHVFRRISKQ
notes: whole, on cells; In the assay it was joined by rapamycin to PB1-mAG1-FKBP12
binding result [1]: binds

B2: CDK4-PB1 (other, not shown: small tags and cut ends)
chain: ATSRYEPVAEIGVGAYGTVYKARDPHSGHFVALKSVRVPNGGGGGGGLPISTVREVALLRRLEAFEHPNVVRLMDVCATSRTDREIKVTLVFEHVDQDLRTYLDKAPPPGLPAETIKDLMRQFLRGLDFLHANCIVHRDLKPENILVTSGGTVKLADFGLARIYSYQMALTPVVVTLWYRAPEVLLQSTYATPVDMWSVGCIFAEMFRRKPLFCGNSEADQLGKIFDLIGLPPEDDWPRDVSLPRGAFPPRGPRPVQSVVPEMEESGAQLLLEMLTFNPHKRISAFRALQHSYLHKDEGNPEMASLTVKAYLLGKEDAAREIRRFSFCCSPEPEAEAEAAAGPGPCERLLSRVAALFPALRPGGFQAHYRDEDGDLVAFSSDEELTMAMSYVKDDIFRIYIKEK
notes: whole, on cells
binding result (mAG1-Cyclin D1): binds

B3: CD2-FRB (other, not shown: small tags and cut ends)
chain: KEITNALETWGALGQDINLDIPSFQMSDDIDDIKWEKTSDKKKIAQFRKEKETFKEKDTYKLFKNGTLKIKHLKTDDQDIYKVSIYDTKGKNVLEKIFDLKIQERVSKPKISWTCINTTLTCEVMNGTDPELNLYQDGKHLKLSQRVITHKWTTSLSAKFKCTAGNKVSKESSVEPVSCPEKGLDIYLIIGICGGGSLLMVFVALLVFYITKRKKQRSRRNDEELETRAHRVATEERGRKPHQIPASTPQNPATSQHPPPPPGHRSQAPSHRPPPPGHRVQHQPQKRPPAPSGTQVHQQKGPPLPRPRVQPKPPHGAAENSLSPSSNEMWHEGLEEASRLYFGERNVKGMFEVLEPLHAMMERGPQTLKETSFNQAYGRDLMEAQEWCRKYMKSGNVKDLTQAWDLYYHVFRRISKQ
notes: whole, on cells
binding result [2]: no binding
